Test results as given in publication doi:10.1101/2025.08.08.669345.

Key:
[1] = biological target: mouse melanocortin 1 receptor (mouse) (UniProt Q01727)
[2] = biological target: mouse melanocortin 4 receptor (mouse) (UniProt P56450)
UniProt P56450, sequence (P56450 whole entry): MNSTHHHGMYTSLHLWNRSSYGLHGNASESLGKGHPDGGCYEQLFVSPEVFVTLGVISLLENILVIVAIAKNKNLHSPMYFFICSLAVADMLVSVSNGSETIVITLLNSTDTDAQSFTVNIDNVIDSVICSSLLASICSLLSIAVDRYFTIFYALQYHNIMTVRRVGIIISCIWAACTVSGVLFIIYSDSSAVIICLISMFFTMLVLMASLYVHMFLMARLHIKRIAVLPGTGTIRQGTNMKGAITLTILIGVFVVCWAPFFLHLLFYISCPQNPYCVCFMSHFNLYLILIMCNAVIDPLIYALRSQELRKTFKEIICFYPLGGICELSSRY

UniProt Q01727, sequence (Q01727 whole entry): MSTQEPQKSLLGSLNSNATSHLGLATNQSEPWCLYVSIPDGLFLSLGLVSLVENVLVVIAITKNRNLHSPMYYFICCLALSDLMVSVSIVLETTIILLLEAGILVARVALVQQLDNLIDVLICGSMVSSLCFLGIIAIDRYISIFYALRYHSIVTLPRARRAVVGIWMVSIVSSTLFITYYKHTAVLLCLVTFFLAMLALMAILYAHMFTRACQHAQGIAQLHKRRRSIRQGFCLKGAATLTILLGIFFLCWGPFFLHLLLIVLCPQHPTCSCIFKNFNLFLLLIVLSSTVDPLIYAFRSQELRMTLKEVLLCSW

EC50 of cAMP production (EPAC BRET sensor), HEK293 cells expressing mMC1R, 3 min [1]: 4.8 nM
EC50 of cAMP production (EPAC BRET sensor), HEK293 cells expressing mMC4R, 3 min [2]: 11.5 nM
Substance: α-melanocyte-stimulating hormone (peptide)
